Experimental findings from patent US6710165B2, “IgE-dependent histamine-releasing factor-binding peptides” (priority 2000, dated 2004) are described below.

For experiment [1], the system named is RBL-2H3 cells. As to the kind of experiment: Histamine release by HRF (RIA). The format is cell-based. As to conditions: IgE-sensitized RBL-2H3 cells, 20 μg/ml recombinant HRF. The protocol:
The full-length rat HRF sequence amplified by PCR was cloned in pRSET-A vector and then, overexpressed in E. coli. The expressed recombinant protein was purified using His-bound Ni column (Novagen) and used for stimulation of RBL-2H3 cells. RBL-2H3 cells were grown in 24-well plate at 1×10^6 cells, sensitized with rat IgE antibody (0.2 μg/ml, Serotec) for 45˜60 minutes and treated with 20 μg/ml of the recombinant HRF protein and the inhibitors as used above, respectively. The obtained sample was prepared to acylated histamine using RIA-analysis kit (Immunotech, France) and competitively bound to ^125I-acylated histamine and monoclonal antibodies. The sample was analyzed by γ-counter.

In experiment [2] the test system is (Na,K)ATPase large cytoplasmic loop (CD3). Description: Yeast 2-hybrid analysis of HRF binding to (Na,K)ATPase large cytoplasmic loop. More on the design: species or system rat. As to conditions: CD3 of (Na,K)ATPase α1 and α2 subunits as bait. From the text: The total cytoplasmic RNA was extracted from rat skeletal muscle and then, cDNA library for yeast 2-hybrid analysis was constructed by using pJG4-5 vector. CD3 region of (Na,K)ATPase α2 subunit was inserted to LexA DNA binding domain (pEG202 vector) and the inserts were used as bait for screening. Positive clones activating reporter gene were selected and sequence analyzed by sequencing, restriction mapping and BLAST search. Among those clones, one clone had the completely identical sequence with HRF.
CD3 regions of (Na,K)ATPase α1 and 2 subunits were inserted to pEG202 vector and then, the interaction by isoforms was examined. Yeast cells containing LexAop-LEU2 and LexAop-LacZ reporter genes (EGY48/pSH18-34) were transformed with all the constructs as prepared above and then, grown in a selective medium plate.

For experiment [3], the system named is (Na,K)ATPase large cytoplasmic loop. As to the kind of experiment: Coimmunoprecipitation in yeast cells. The format is binding, rat. The protocol: In Glucosyl Ura-His-Trp- and galactosyl Ura-His-Trp-media, yeast cells transformed with the constructs prepared in Example 1 were grown, and the cells were harvested by centrifugation at 3,000×g for 5 minutes. The harvested cells were resuspended in yeast lysis buffer (YLB: 50 mM Tris pH 8.0, 5 mM MgCl2, 150 mM NaCl, 50 mM NaF, 2 mM ZnCl2, protease inhibitor cocktail) and subsequently, the suspension was added to glass beads and vortexed. Thereto was added RIPA buffer (10 mM Tris pH 8.0, 100 mM NaCl, 1 mM EDTA, 1% NP4O, 0.5% sodium deoxycholate, 0.1% SDS) and then, the whole mixture was centrifuged at 10,000×g, 4° C. for 30 minutes.
To the cell extracts as prepared above, IgG sorb (The Enzyme Center, Inc.) was added and then, the mixture was incubated at 4° C. for 30 minutes and centrifuged at 10,000×g for 5 minutes. Thereto was added affinity-purified anti-HA 12CA5 monoclonal antibodies and then, the resulting mixture was incubated for 3 hours or overnight at 4° C. 50% protein A agarose solution (Roche, USA) was added to the above immunocomplex and the whole mixture was incubated at 4° C. for 4 hours. After centrifugation for 5 seconds, the obtained pellets were washed with RIPA buffer and washing buffer (1 M NaCl, 10 mM Tris pH 8.0, 0.1% NP4O), respectively. The pellets were resuspended in 2×SDS sample buffer and then, the suspension was loaded onto SDS-PAGE gel. […]

Experiment [4] concerns RBL-2H3 cells. As to the kind of experiment: Intracellular Ca2+ concentration (Fluo-3-AM). In kind it is cell-based. The protocol: RBL-2H3 cells were cultivated according to the same procedure as in Example 6 and then, washed with Krebs-Ringer buffer (KRH, 125 mM NaCl, 1.2 mM KH2PO4, 1.2 mM MgSO4, 6 mM glucose, 2 mM CaCl2, 25 mM Hepes, pH 7.4). Subsequently, they were incubated with 2 μM Fluo-3-AM (Molecular Probes, Eugene, Oreg.) and KRH buffer containing 0.2% BSA for 30 minutes and then, the culture was corrected with DMEM complete medium for 10˜30 minutes. Subsequently, the cells were washed with KRH buffer and sensitized according to the same procedure as in Example 6. After the sensitization, the cells were treated with HRF, anti-IgE (Serotec) and each inhibitor together with histamine releasing buffer (100 mM NaCl, 0.4 mM MgCl2, 5 mM KCl, 5.6 mM glucose, 0.1% BSA, 25 mM Hepes, pH 7.4) in the presence or absence of Ca^2+. The fluorescence of fluo-3AM was measured at 488/515 nm using laser scanning confocal microscope.

Experiment [5] has as its system (Na,K)ATPase large cytoplasmic loop. As to the kind of experiment: Coimmunoprecipitation in COS-7 cells. The format is binding. As to conditions: HA-tagged HRF. On the procedure:
Subsequently, to examine such interaction in mammalian cells, COS-7 cells were grown in DMEM^+ culture (Dulbeccos modified Eagles medium containing 10% fetal bovine serum, 100 units/ml penicillin and 100 units/ml streptomycin). The cells were transfected with N-terminal HA-tagged HRF constructs inserted to pCDNAneo vector (Invitrogen). COS-7 cell extracts were immunoprecipitated according to the method of Florkiewicz, et al. (1998). To detect the interactive protein, rabbit polyclonal anti-(Na,K)ATPase antibodies were added thereto.

A further experiment concerns COS-7 cells. As to the kind of experiment: HRF's capability of transiting cell membrane (confocal microscopy, Western blotting). The format is cell-based. As to conditions: recombinant rat HRF added to COS-7 cell culture solution. The protocol: The full-length rat HRF sequence (Chitpatima, et al., 1988) amplified by PCR (polymerase chain reaction) was cloned in pRSET-A vector and then, overexpressed in E. coli. The expressed recombinant protein was purified by His-bound Ni column (Novagen) and then, added to COS-7 cell culture solution. COS-7 cells were immobilized with 3.7% formaldehyde containing Ca^2+ and Mg^2+ for 10 minutes. Then, the cells were stained with anti-His monoclonal antibodies (1:100) containing 0.1% saponin at room temperature for 1 hour. Subsequently, they were incubated with anti-mouse-FITC (1:100) secondary antibodies for 30 minutes. Anti-bleaching agent solution was added thereto and then, observation was made under laser confocal microscope (Leica TCSNT system).
Further, COS-7 cells cultivated in 100 mm culture plate were treated according to the above method. Then, the cells were divided into cytoplasmic fraction and cell membrane fraction. They were loaded onto 10% SDS-PAGE gel and then, Western blotting was carried out using anti-His monoclonal antibodies.
As shown in the figures, HRF was detected within the cells at 1 minute after its addition.

B1: HRF: recombinant full-length rat HRF overexpressed in E. coli; protein consisting of 172 amino acids (protein)
chain: MIIYRDLISHDELFSDIYKIREIADGLCLEVEGKMVSRTEGAIDDSLIGGNASAEGPEGEGTESTVVTGVDIVMNHHLQETSFTKEAYKKYIKDYMKSLKGKLEEQKPERVKPFMTGAAEQIKHILANFNNYQFFIGENMNPDGMVALLDYREDGVTPFMIFFKDGLEMEKC
modifications: left off: small tags and cut ends
notes: recombinant full-length rat HRF overexpressed in E. coli; protein consisting of 172 amino acids
As to B1, in the experiment with RBL-2H3 cells [1], the histamine release result is on record as “histamine was released by HRF”. Further, the “HRF binding to (Na,K)ATPase CD3 in yeast 2-hybrid” value in experiment [2] is listed as “HRF receptor corresponds to large cytoplasmic loop (CD3) of (Na,K)ATPase”. In addition, the “interaction with (Na,K)ATPase large cytoplasmic loop, coimmunoprecipitation” value in experiment [3] was “interaction between HRF and (Na,K)ATPase large cytoplasmic loop could be confirmed”; in experiment [5] it was “interacted with (Na,K)ATPase large cytoplasmic loop”. Also, the “effect on intracellular Ca2+ concentration” value in the experiment with RBL-2H3 cells [4] is listed as “intracellular Ca^2+ concentration was increased”. Moreover, in the experiment with COS-7 cells, the “time after addition at which HRF was detected within the cells” value was found to be 1 min.
